Test results: PMC6591005

Target: GII.4.2002 P domain (human norovirus GII.4 2002 (Farmington Hills))
Assay: crystal structure

Substance: GII.4.2002 P domain (domain or fragment)
- stoichiometry N: 2
